Legend:
Experiment in all cases: ELISA
[1] = biological target: recombinant EBOV Kikwit 1995 NP (Zaire ebolavirus (EBOV) Kikwit 1995, UniProt O72142 1-739)
[2] = biological target: nluc-NP612 fusion protein, EBOV (Zaire ebolavirus (EBOV), UniProt O72142 612-739)
[3] = biological target: nluc-NP612 fusion protein, SUDV (Sudan ebolavirus (SUDV), UniProt Q9QP77 612-738)
[4] = biological target: recombinant SUDV Boniface 1976 NP (Sudan ebolavirus (SUDV) Boniface 1976, UniProt Q9QP77 1-738)

B1: sdAb ZC-gluc fusion (glucibody) (VHH)
VHH: KVQLQQSGGGSVTPGGSLRLSCAASGSISDFAAMAWYRQAPGKERDWVGTIFSAGALLYAEPVKGRFTISRDNAKNTVYLQMNSLKPEDTAVYYCRLYAEAIYWGQGTQVTVSS
[1]
  EC50: 13 nM

B2: sdAb ZC, biotinylated (from pecan126) (VHH)
VHH: KVQLQQSGGGSVTPGGSLRLSCAASGSISDFAAMAWYRQAPGKERDWVGTIFSAGALLYAEPVKGRFTISRDNAKNTVYLQMNSLKPEDTAVYYCRLYAEAIYWGQGTQVTVSS
modifications: biotin (singly biotinylated)
[2]
  EC50: 186 nM

B3: sdAb SB, biotinylated (from pecan126) (VHH)
VHH: QVKLQQSGGGSVQEGGSLRLSCASSGAFFRAGPMGWYRRAPGNERELVAGISRNGRTIYAPSLKDRFTISRDDDNNILYLQMSDLTPGDTAVYYCNLNVRTAVAGRNDYWGQGTQVTVSS
modifications: biotin (singly biotinylated)
[3]
  EC50: 635 nM

B4: sdAb SB-gluc fusion (glucibody) (VHH)
VHH: QVKLQQSGGGSVQEGGSLRLSCASSGAFFRAGPMGWYRRAPGNERELVAGISRNGRTIYAPSLKDRFTISRDDDNNILYLQMSDLTPGDTAVYYCNLNVRTAVAGRNDYWGQGTQVTVSS
[4]
  EC50: 37 nM

B5: sdAb ZE-gluc fusion (glucibody) (VHH)
VHH: QVQLQESGGGLVQPGGSLRLSCTASGFTLAEYGVGWFRQAPGKERELVALIAVGGTTHSIDSVKGRFTISRDNMKNTVYLQMNSLNVEDTAVYYCNAYSSAYDRNYWGQGTQVTVSS
[1]
  EC50: 31 nM

B6: sdAb ZE, biotinylated (from pecan126) (VHH)
VHH: QVQLQESGGGLVQPGGSLRLSCTASGFTLAEYGVGWFRQAPGKERELVALIAVGGTTHSIDSVKGRFTISRDNMKNTVYLQMNSLNVEDTAVYYCNAYSSAYDRNYWGQGTQVTVSS
modifications: biotin (singly biotinylated)
[2]
  EC50: 1030 nM

From publication PMC6990103 (2019)
